Laboratory results taken from article PMC8934638, “H3K36 methylation and DNA-binding both promote Ioc4 recruitment and Isw1b remodeler function”.

Columns and labels:
[1] = target: T1, Ioc4 PWWP domain (Saccharomyces cerevisiae, UniProt Q04213 1-178); experiment: EMSA; settings: 5% native PAGE (37.5:1) in 0.4x TBE, 2% glycerol, binding buffer, pH and temperature not given (as in …)
T1 sequence: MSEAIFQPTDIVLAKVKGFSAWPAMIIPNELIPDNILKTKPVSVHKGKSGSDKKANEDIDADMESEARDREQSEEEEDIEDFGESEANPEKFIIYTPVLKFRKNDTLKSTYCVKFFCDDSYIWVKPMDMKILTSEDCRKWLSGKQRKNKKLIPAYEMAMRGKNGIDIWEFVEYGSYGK

[2] = target: T2, Ioc4 full-length (Saccharomyces cerevisiae, UniProt Q04213 1-475); experiment: EMSA; settings: 5% native PAGE (37.5:1) in 0.4x TBE, 2% glycerol, binding buffer, pH and temperature not given (as in …)
T2 sequence: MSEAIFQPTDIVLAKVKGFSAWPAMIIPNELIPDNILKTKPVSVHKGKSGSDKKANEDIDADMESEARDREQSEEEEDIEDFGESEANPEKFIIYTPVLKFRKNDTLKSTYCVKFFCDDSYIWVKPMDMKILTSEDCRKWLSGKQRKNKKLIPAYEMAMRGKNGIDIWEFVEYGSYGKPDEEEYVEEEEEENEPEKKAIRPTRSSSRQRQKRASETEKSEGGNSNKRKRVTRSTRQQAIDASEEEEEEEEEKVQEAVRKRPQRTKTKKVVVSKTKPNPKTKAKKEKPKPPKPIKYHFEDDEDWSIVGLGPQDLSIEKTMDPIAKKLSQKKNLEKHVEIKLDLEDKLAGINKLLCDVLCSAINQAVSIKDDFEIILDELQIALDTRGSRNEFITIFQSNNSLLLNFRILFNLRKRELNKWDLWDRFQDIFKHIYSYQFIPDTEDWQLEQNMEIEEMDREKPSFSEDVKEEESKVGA

[3] = system: Isw1b complex (Isw1, Ioc2, Ioc4) (Saccharomyces cerevisiae); experiment: EMSA; settings: peptide-ligated H3 (T45C), 5% native PAGE (37.5:1) in 0.4x TBE, 2% glycerol, binding buffer, pH and temperature not given (as in …)
[4] = target: T1, Ioc4 PWWP domain; experiment: EMSA; EMSA; 15 fmol NCP (30 fmol unmodified NCP) per reaction; 5% native PAGE (37.5:1) in 0.4x TBE, 2% glycerol; binding buffer, pH and temperature not given (as in cited work); settings: protein: recombinant; tags: N-terminal 6xHis; label: Cy5 on sense strand; blunt
[5] = target: T2, Ioc4 full-length; experiment: as above; settings: protein: recombinant; tags: N-terminal 6xHis-MBP; label: Cy5 on sense strand; blunt
[6] = target: T1, Ioc4 PWWP domain; experiment: EMSA; bound equally to the AT-rich substrate; EMSA; 15 fmol NCP (30 fmol unmodified NCP) per reaction; 5% native PAGE (37.5:1) in 0.4x TBE, 2% glycerol; binding buffer, pH and temperature not given (as in cited work); settings: protein: recombinant; tags: N-terminal 6xHis; label: Cy5 on sense strand; blunt
[7] = 15 fmol NCP (30 fmol unmodified NCP) per reaction
[8] = peptide-ligated H3 (T45C), K36me0, 15 fmol NCP (30 fmol unmodified NCP) per reaction
[9] = peptide-ligated H3 (T45C), K36me3, 15 fmol NCP (30 fmol unmodified NCP) per reaction

RNA:DNA hybrid
Kd [1, 7]: 760 nM | Kd [2, 7]: 55 nM

NCP H3K36me0, 147 bp 601
Kd [1, 8]: 400 nM | Kd ([3]; K36me0, 15 fmol NCP (30 fmol unmodified NCP) per reaction): 57.3 nM | Kd [2, 8]: 11 nM

NCP H3K36me3, 147 bp 601
Kd [1, 9]: 120 nM | Kd ([3]; K36me3, 15 fmol NCP (30 fmol unmodified NCP) per reaction): 4.8 nM | Kd [2, 9]: 6.7 nM

NCP unmodified, 147 bp 601
Kd ([1]; unmodified histones, 15 fmol NCP (30 fmol unmodified NCP) per reaction): 450 nM

B1: dsDNA 30 bp (601-derived EMSA probe) (dsDNA)
DNA 1: GGCAAGGTCGCTGTTCAATACATGCACAGG
DNA 2: CCTGTGCATGTATTGAACAGCGACCTTGCC
Kd [4]: 810 nM | Kd [5]: 34 nM

B2: dsRNA 30 bp (AT rich) (dsRNA)
RNA 1: GGCAAGGUCGCUGUUCAAUACAUGCACAGG
RNA 2: CCUGUGCAUGUAUUGAACAGCGACCUUGCC
Kd [4]: 1800 nM | Kd [5]: 56 nM

B3: dsRNA 25 bp GC rich (dsRNA)
RNA 1: CCCGGUGCCGAGGCCGCUCAAUUGG
RNA 2: CCAAUUGAGCGGCCUCGGCACCGGG
binding result [6]: binds
